From patent US20090110686A1 come the findings set out here.

For this experiment, the target named is human CC chemokine receptor CCR5 (human) (UniProt P51681). Kind of experiment: cell-based or functional assay.

B1: anti-CCR5 antibody with heavy chain variable domain SEQ ID NO: 6 and light chain variable domain SEQ ID NO: 9, mutated IgG1 (IgG1v2) constant region (antibody, name in EU numbering, V domains shown)
VH: QVQLQESGPGLVKPSQSLSITCTVSGFPLGAFGVHWVRQSPGKGPEWLGVIWKGGNTDYNAAFKSRLRITKDNSKSQVFFRMNSLQTDDTATYYCAKVNLADAMDYWGQGTTVTVSS
VL: DIQMTQSPASLSASVGETVTITCRASGNAHGYLAWYQQKPGKAPKLLIYNTKTLAEGVPSRFSGSGSGTQFSLKINSAQPEDFGNYYCQHHYDLPRTFGGGTKVEIKR
The molecule B1 returned an IC50, cell-cell fusion assay (gp160-expressing HeLa cells with CEM.NKR-CCR5-Luc cells, luciferase) of 108 ng/mL.

B2: anti-CCR5 antibody with heavy chain variable domain SEQ ID NO: 7 and light chain variable domain SEQ ID NO: 9, mutated IgG1 (IgG1v2) constant region (antibody, name in EU numbering, V domains shown)
VH: QVQLQESGPGLVKPSQSLSITCTVSGFPLGAFGVHWVRQSPGKGLEWLGVIWKGGNTDYNAAFKSRLRITKDNSKSQVFFRMNSLQTDDTATYYCAKVNLADAMDYWGQGTTVTVSS
VL: DIQMTQSPASLSASVGETVTITCRASGNAHGYLAWYQQKPGKAPKLLIYNTKTLAEGVPSRFSGSGSGTQFSLKINSAQPEDFGNYYCQHHYDLPRTFGGGTKVEIKR
As for B2, the IC50, cell-cell fusion assay (gp160-expressing HeLa cells with CEM.NKR-CCR5-Luc cells, luciferase) came out at 46 ng/mL.

B3: anti-CCR5 antibody with heavy chain variable domain SEQ ID NO: 8 and light chain variable domain SEQ ID NO: 10, mutated IgG1 (IgG1v2) constant region (antibody, name in EU numbering, V domains shown)
VH: QVQLQESGPGLVKPSQSLSITCTVSGFPLGAFGVHWVRQSPGKGLEWLGVIWKGGNTDYNAAFKSRLRITKDNSKSQVFFRMNSLQTDDTAIYYCAKVNLADAMDYWGQGTTVTVSS
VL: DIQMTQSPASLSASVGETVTITCRASGNAHGYLAWYQQKPGKAPKLLVYNTKTLAEGVPSRFSGSGSGTQFSLKINSAQPEDFGNYYCQHHYDLPRTFGGGTKVEIKR
For the molecule B3, the IC50, cell-cell fusion assay (gp160-expressing HeLa cells with CEM.NKR-CCR5-Luc cells, luciferase) came to 76 ng/mL.

B4: anti-CCR5 antibody with heavy chain variable domain SEQ ID NO: 8 and light chain variable domain SEQ ID NO: 9, mutated IgG1 (IgG1v2) constant region (antibody, name in EU numbering, V domains shown)
VH: QVQLQESGPGLVKPSQSLSITCTVSGFPLGAFGVHWVRQSPGKGLEWLGVIWKGGNTDYNAAFKSRLRITKDNSKSQVFFRMNSLQTDDTAIYYCAKVNLADAMDYWGQGTTVTVSS
VL: DIQMTQSPASLSASVGETVTITCRASGNAHGYLAWYQQKPGKAPKLLIYNTKTLAEGVPSRFSGSGSGTQFSLKINSAQPEDFGNYYCQHHYDLPRTFGGGTKVEIKR
In turn, B4 had an IC50, cell-cell fusion assay (gp160-expressing HeLa cells with CEM.NKR-CCR5-Luc cells, luciferase) of 132 ng/mL.

B5: anti-CCR5 antibody with heavy chain variable domain SEQ ID NO: 7 and light chain variable domain SEQ ID NO: 10, mutated IgG1 (IgG1v2) constant region (antibody, name in EU numbering, V domains shown)
VH: QVQLQESGPGLVKPSQSLSITCTVSGFPLGAFGVHWVRQSPGKGLEWLGVIWKGGNTDYNAAFKSRLRITKDNSKSQVFFRMNSLQTDDTATYYCAKVNLADAMDYWGQGTTVTVSS
VL: DIQMTQSPASLSASVGETVTITCRASGNAHGYLAWYQQKPGKAPKLLVYNTKTLAEGVPSRFSGSGSGTQFSLKINSAQPEDFGNYYCQHHYDLPRTFGGGTKVEIKR
In turn, B5 had an IC50, cell-cell fusion assay (gp160-expressing HeLa cells with CEM.NKR-CCR5-Luc cells, luciferase) of 152 ng/mL.

B6: anti-CCR5 antibody with heavy chain variable domain SEQ ID NO: 6 and light chain variable domain SEQ ID NO: 10, mutated IgG1 (IgG1v2) constant region (antibody, name in EU numbering, V domains shown)
VH: QVQLQESGPGLVKPSQSLSITCTVSGFPLGAFGVHWVRQSPGKGPEWLGVIWKGGNTDYNAAFKSRLRITKDNSKSQVFFRMNSLQTDDTATYYCAKVNLADAMDYWGQGTTVTVSS
VL: DIQMTQSPASLSASVGETVTITCRASGNAHGYLAWYQQKPGKAPKLLVYNTKTLAEGVPSRFSGSGSGTQFSLKINSAQPEDFGNYYCQHHYDLPRTFGGGTKVEIKR
B6 registered an IC50, cell-cell fusion assay (gp160-expressing HeLa cells with CEM.NKR-CCR5-Luc cells, luciferase) of 399 ng/mL.
